Patent US20190338026A1 (University of Texas, published 2019)

T1: LAIR1 on LAIR1 reporter cells (human, UniProt Q6GTX8 22-165, limits assumed)
T1 chain: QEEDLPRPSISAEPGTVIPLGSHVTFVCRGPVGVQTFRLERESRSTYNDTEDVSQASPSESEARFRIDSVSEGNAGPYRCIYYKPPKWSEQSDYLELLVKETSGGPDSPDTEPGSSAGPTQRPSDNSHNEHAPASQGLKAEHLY

T2: human LAIR1 extracellular domain (ECD) protein with 6 HIS tag at the C-terminus (human, UniProt Q6GTX8 22-165)
T2 construct: Produced recombinantly in HEK293 cells; the whole entry is named here; also called LAIR1 ECD; LAIR1-ECD
T2 chain: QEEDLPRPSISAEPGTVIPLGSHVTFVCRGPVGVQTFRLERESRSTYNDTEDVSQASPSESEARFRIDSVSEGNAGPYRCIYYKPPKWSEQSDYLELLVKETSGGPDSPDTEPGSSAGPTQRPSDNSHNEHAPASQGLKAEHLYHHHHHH

T3: recombinant LAIR1 (human, UniProt Q6GTX8 22-165, limits assumed)
T3 construct: also called LAIR1 (Octet analyte)
T3 chain: T1 chain

B1: LA-235 (antibody, V domains shown)
VH: SSSVEESEGRLVTPGTPLTLTCTVSGFSLSSYTMGWVRQAPGEGLEWIGTTSNDGSTYYASWAKGRFTISKTSSTTVDLMMTSLTTEDTATYFCVRGTNIRSLWGPGTLVTISS
VL: ELVMTQTPASVEAAVGGTVTIKCQASQSIGSNLAWYQQKPGQPPKLLIYLASALASGVSSRFKGSGSGSDFTLTISDLECADAATYYCQCTYGSSNNNNYGDPFGGGTEVEIK
notes: Rabbit monoclonal IgG; Called an antagonist antibody
B2: LA-259-2 (antibody, V domains shown)
VH: QSVKESGGRLVTPGTPLTLTCTASGFSLYKYNIQWVRQAPGKGLEYIGASTYAGYTYYASWAKGRVTISRTSTTVDLKMTSPTTEDTATYFCARHIDGDYSGYALWGPGTLVTISS
VL: ELVMTQTPASVSAAVGGTVTIKCQASQSIGTWFAWYQQKPGQSPKLLIYGPSKLASGVPPRFKGSGSGTEFTLTISDLECDDAATYYCQSNGGSISNGWGSFGGGTEVVVK
notes: Rabbit monoclonal IgG
B3: LA-94 (antibody, V domains shown)
VH: EQSLEESEGRLVTPGTPLTLTCTASGFSLSGYHMSWVRQAPGKGLEYIGYISERGTSYYANWAKGRFTVSKSSSSTVVLSIISPTAEDTATYFCARYGGGDSAFILWGPGTLVTISS
VL: ELVMTQTPASVSGPVGGTVTIKCQASHNIDNSLAWYQQKPGQPPKLLIYKASTLASGVSSRFKGSGSGTEYTLTISDLECADAATYFCQGTIGLNSGCAFGGGTEVEIK
notes: Rabbit monoclonal IgG; Called an agonist antibody; also called mAb LA-94; agonist Ab LA-94
B4: LA-258-2 (antibody, V domains shown)
VH: QSVKESGGDLVKPEGSLTLTCKASGFSFSNSYYMCWVRQAPGKGLEWIACIYTGSTSGTYYASWVNGRFTISKTPSTTVTLQMTSLTVADTATYFCSRKLTNFNGAYLDLWGPGTLVTISS
VL: ELVMTQTPSSVEAAVGGTVTIKCQASQSIYSYLAWYQQKPGQPPKVLIYKASTLASGVPSRFKGSGSGTDFTLTISDLECADAATYYCQANNGGSDNNFGGGTEVEIK
notes: Rabbit monoclonal IgG
B5: LA-258-3 (antibody, V domains shown)
VH: B4 VH
VL: ELVLTQTPASVEAAVGGTVTINCQASQSISNLLAWYQQKPGQPPKVLIYKASTLASGVPSRFKGSGSGTDFTLTISDLECADAATYYCQANNGGSDNNFGGGTEVVVKA
notes: Rabbit monoclonal IgG
B6: LA-192 (antibody, V domains shown)
VH: EQSLEESGGRLVTPGTPLTLTCTASGFSLSSYYMTWVRQAPGKGLEWIGYMHTGGGVVYASWATGRFTISRTSTTVDLKITSPTTEDTATYFCARSHAGYSTINRLDLWGVGTLVTISS
VL: ELDLTQTPSSVSAAVGGTVTISCQSSPSVYTNNLSWFQQKPGQPPKLLIYDASKLESGVPSRFRGSGSGTQFTLTISDVQCDDAATYYCAGAYLSDSDTTFGGGTELEIK
notes: Rabbit monoclonal IgG; Called an agonist antibody
B7: LA-121 (antibody, V domains shown)
VH: EQSVEESGGRLVTPGTPLTLTCTASGFSLYKYNIQWVRQAPGKGLEYIGASTYAGYTYYASWAIGRVTISRTSTTVDLKMTSPTTEDTATYFCARHIDGDYSGYALWGPGTLVTISS
VL: ELDLTQTPASVSAAVGGTVTIKCQASQSIDTWFGWYQQKPGQSPKLLIYGASKLASGVPPRFKGSGSGTEFTLTISDLECADAATYYCQNTYYGVRYLGGAFGGGTEVEIK
notes: Rabbit monoclonal IgG

Key:
[1] = target: T1, LAIR1 on LAIR1 reporter cells
[2] = target: T1, LAIR1 on LAIR1 reporter cells
[3] = target: T1, LAIR1 on LAIR1 reporter cells; experiment: cell-based or functional assay
[4] = target: T1, LAIR1 on LAIR1 reporter cells; experiment: cell-based or functional assay
[5] = target: T1, LAIR1 on LAIR1 reporter cells; experiment: cell-based or functional assay
[6] = target: T2, human LAIR1 extracellular domain (ECD) …; experiment: ELISA, LAIR1 ECD coated
Experimental: (§1) The inventors then used a concentration titration (0-10 μg/ml) by ELISA to determine the LAIR1 monoclonal antibody (mAbs) binding to human LAIR1 ECD. […] For FIGS. 2-39, X axis indicates the antibody concentrations and Y-axis is binding signals, measured as OD (450 nm). To perform the ELISA assay, LAIR1 ECD recombinant protein was coated on high absorption 96-well plates. Serial diluted (3-fold) LAIR1 mAb was added to the coated/blocked plates and detected using goat anti-rabbit F(ab′)2 conjugated HRP as secondary antibody. All assays were repeated 3 times and the titration curves were fitted using 4-parameter fitting curve using the GraphPad software for EC₅₀ estimation.
(§2) Serial dilutions of the LAIR1 monoclonal antibodies (IgGs or scFvs fragments), starting from […] and 3-fold titration down for 12 steps, were added to the 96-well plate for binding by incubating 45 minutes at 37° C. with a cover on the assay plate. Then the plates were washed with PBS containing Tween 20 (0.05% concentration) for 3 times and PBS one time. […] Detection was conducted by adding HRP substrate, TMB (ThermoFisher) for 10 minutes, and stopped by adding 50 μl/well of 2N H2504. The plates were read for absorbance at 450 nm using a plate reader (SpectraMax M4, Molecular Devices). Data were collected and graphed using a 4-parameter fitting curve with GrapPad Prism 7 software for EC₅₀ calculation.

[7] = target: T2, human LAIR1 extracellular domain (ECD) …; experiment: ELISA, LAIR1 ECD coated, mAb titrated, anti-rabbit HRP
Experimental: as §1, §2

recombinant LAIR1 = target: T3, recombinant LAIR1; experiment: BLI (Octet), mAb on protein A sensor, recombinant LAIR1 0.1-200 nM, 1:1 fit
Experimental: To perform the assay, antibody (30 μg/mL) was loaded to the proteins A sensor for 4 min, followed by a short buffering to establish baseline in kinetics buffer. The loaded sensors were then exposed to a series of recombinant LAIR1 concentrations (0.1-200 nM) for kinetic binding detection. Background subtraction was used to correct the sensor drifting. All experiments were performed with shaking at 1,000 rpm. Background wavelength shifts were measured from reference sensors that were loaded only with antibody. ForteBio's data analysis software was used to fit the data to a 1:1 binding model to extract an association rate and dissociation rate. The KD was calculated using the ratio […] using ForteBio's data analysis software 7.0.

Row | Molecule | GFP+% of LAIR1 reporter cells, K562 coculture, no Ab (row Collagen I-ctrl) [1] | GFP+% of LAIR1 reporter cells, collagen I coated, no Ab (row collagen I-ctrl) [2] | GFP+% of LAIR1 reporter cells, collagen I coated, soluble Ab and K562 cells [3] | GFP+ of LAIR1 reporter cells, Abs coated [4] | GFP+ of LAIR1 reporter cells, Collagen I coated [4] | GFP+% of LAIR1 reporter cells, collagen I coated, soluble Ab [5] | EC50 (read off the curve) [6] | EC50 [7] | Kd (recombinant LAIR1) | koff (recombinant LAIR1) | kon (recombinant LAIR1) | GFP+ of LAIR1 reporter cells, Collagen I coated + K562 [4]
1 | collagen I (ligand) | 42.5% | 31.3% | – | – | – | – | – | – | – | – | – | –
2 | B1 | – | – | 19% | > 40% | < 5% | 5.76% | ~0.01 µg/mL | 30 pM | – | – | – | –
3 | B2 | – | – | – | – | – | – | ~0.03 µg/mL | 220 pM | 196 pM | 4.23e-05 s⁻¹ | 216000 M⁻¹ s⁻¹ | –
4 | B3 | – | – | 24.6% | > 40% | > 40% | 50.4% | ~0.02 µg/mL | 120 pM | – | – | – | > 40%
5 | B4 | – | – | – | – | – | – | ~0.05 µg/mL | 370 pM | 33.7 pM | 8.02e-06 s⁻¹ | 238000 M⁻¹ s⁻¹ | –
6 | B5 | – | – | – | – | – | – | ~0.05 µg/mL | 300 pM | 5580 pM | 0.00222 s⁻¹ | 397000 M⁻¹ s⁻¹ | –
7 | B6 | – | – | 18.7% | > 40% | > 40% | 63.2% | ~0.02 µg/mL | 40 pM | – | – | – | > 40%
8 | B7 | – | – | 0.891% | – | – | 1.11% | ~0.03 µg/mL | 210 pM | 127 pM | 2.41e-05 s⁻¹ | 190000 M⁻¹ s⁻¹ | –
